Laboratory results published in article PMC2648068 (Journal of immunology (Baltimore, Md. : 1950), 2009).

What was measured:
Experiment in all cases: ELISA
recombinant mouse TLR1 = target: T1, recombinant mouse TLR1 (mouse, UniProt Q9EPQ1 26-582)
T1 sequence (looked up): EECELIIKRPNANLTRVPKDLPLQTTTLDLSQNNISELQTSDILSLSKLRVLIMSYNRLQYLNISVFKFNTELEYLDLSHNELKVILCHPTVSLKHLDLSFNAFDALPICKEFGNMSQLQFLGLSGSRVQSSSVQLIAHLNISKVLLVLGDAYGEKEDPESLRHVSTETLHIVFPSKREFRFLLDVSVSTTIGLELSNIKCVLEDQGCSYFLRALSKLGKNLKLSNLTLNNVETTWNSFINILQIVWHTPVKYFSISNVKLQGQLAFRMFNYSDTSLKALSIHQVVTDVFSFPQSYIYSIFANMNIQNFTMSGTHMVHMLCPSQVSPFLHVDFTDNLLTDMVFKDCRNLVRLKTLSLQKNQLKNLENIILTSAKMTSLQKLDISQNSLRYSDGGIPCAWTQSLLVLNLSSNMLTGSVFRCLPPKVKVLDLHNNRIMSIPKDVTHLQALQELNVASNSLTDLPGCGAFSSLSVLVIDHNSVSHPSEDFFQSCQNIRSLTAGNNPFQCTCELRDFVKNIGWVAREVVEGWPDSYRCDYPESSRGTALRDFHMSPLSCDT

recombinant human TLR1 = target: T2, recombinant human TLR1 (human, UniProt Q15399 25-580)
T2 sequence (looked up): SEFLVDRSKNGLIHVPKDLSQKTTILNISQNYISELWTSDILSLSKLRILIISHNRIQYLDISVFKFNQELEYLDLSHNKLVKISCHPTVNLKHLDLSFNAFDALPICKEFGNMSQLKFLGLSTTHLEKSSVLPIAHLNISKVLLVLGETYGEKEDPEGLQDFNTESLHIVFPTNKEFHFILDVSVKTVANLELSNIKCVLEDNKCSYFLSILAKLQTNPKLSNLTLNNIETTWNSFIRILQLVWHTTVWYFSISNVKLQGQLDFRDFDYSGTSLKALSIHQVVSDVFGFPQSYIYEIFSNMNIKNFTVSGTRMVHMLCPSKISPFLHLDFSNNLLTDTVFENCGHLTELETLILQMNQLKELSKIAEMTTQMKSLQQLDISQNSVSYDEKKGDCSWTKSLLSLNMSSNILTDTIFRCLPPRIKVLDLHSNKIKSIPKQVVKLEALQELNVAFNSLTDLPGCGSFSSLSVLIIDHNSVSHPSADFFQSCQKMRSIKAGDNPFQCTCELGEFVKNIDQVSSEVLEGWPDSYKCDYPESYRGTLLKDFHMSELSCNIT

recombinant mouse TLR2 = target: T3, recombinant mouse TLR2 (mouse, UniProt Q9QUN7 25-587)
T3 sequence (looked up): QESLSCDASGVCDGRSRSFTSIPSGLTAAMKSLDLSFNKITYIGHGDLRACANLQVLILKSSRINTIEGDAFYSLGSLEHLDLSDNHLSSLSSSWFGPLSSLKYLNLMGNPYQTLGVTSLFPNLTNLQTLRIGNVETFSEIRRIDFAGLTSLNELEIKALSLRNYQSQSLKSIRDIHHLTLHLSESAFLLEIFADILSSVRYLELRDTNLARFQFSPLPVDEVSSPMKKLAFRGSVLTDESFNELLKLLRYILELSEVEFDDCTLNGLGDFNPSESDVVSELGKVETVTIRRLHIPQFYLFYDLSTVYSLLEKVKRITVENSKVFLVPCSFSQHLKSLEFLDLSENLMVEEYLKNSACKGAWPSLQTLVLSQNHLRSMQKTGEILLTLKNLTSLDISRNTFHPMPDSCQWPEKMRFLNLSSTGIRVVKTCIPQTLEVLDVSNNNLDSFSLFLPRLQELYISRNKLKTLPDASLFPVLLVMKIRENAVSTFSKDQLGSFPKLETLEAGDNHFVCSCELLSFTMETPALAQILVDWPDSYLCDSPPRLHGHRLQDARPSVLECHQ

recombinant human TLR2 = recombinant human TLR2 (human, UniProt O60603 21-588)
recombinant human TLR2, sequence (O60603 21-588): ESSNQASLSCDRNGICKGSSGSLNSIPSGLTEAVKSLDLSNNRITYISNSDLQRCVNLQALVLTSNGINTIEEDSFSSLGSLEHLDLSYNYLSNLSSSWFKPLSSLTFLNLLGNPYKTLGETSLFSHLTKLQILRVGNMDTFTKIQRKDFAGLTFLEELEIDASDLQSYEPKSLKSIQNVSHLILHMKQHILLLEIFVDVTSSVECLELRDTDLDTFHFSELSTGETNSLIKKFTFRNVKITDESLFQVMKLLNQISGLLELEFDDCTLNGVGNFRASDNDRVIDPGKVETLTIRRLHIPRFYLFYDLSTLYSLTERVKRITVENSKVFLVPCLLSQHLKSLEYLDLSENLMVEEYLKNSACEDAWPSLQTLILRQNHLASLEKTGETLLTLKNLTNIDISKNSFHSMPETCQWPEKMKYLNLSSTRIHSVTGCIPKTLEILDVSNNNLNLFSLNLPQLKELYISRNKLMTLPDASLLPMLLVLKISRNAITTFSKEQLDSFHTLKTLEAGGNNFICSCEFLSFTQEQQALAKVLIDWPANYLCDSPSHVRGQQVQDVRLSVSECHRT

Measured: binding result

B1: LT-IIb-B5, pentameric B subunit of type IIb E. coli enterotoxin (wild-type) (natural protein)
chain: GASQFFKDNCNRTTASLVEGVELTKYISDINNNTDGMYVVSSTGGVWRISRAKDYPDNVMTAEMRKIAMAAVLSGMRVNMCASPASSPNVIWAIELEAE
binds: recombinant mouse TLR1 | recombinant human TLR1 | recombinant mouse TLR2 | recombinant human TLR2
